These results are taken from US20250115669A1, “FGFR1/KLB Targeting Agonistic Antigen-Binding Proteins and Conjugates Thereof with GLP-1R Agonistic Peptides” (SANOFI, priority 2020, published 2025).

Data set [1] can be described thus: Dynamic light scattering (DLS) and diffusion interaction parameter (kD). The format is physicochemical. The protocol: Dynamic light scattering (DLS) was performed using a DynaPro Plate Reader (Wyatt Technology). The samples were measured in 384 well assay plates (Corning) at 25° C. Data were evaluated by cumulant fitting using Dynamics Software version 7.7.0.125 (Wyatt Technology).
Colloidal stability of the samples was assessed by measuring the diffusion interaction parameter (kD) at 20° C. using a DynaPro Plate Reader (Wyatt Technology). Before the measurements the samples were buffer exchanged against 5 L of 10 mmol/L Histidine pH 6.0 by dialysis for 20 h with one buffer change using 1 mL Float-A-Lyzer G2 devices with 3.5-5 kDa cut-off (Spectrum Labs). A dilution series from 1 to 4.5 mg/mL, in 0.5 mg/mL increments, was prepared in 10 mmol/L Histidine pH 6.0 and measured in 384 well assay plates (Corning).

Data set [2] can be described thus: NHP study of Ab0335 (SAR18) versus 16H7 (SAR16) in high-fat diet-induced obese cynomolgus monkeys. In kind it is in vivo, Cynomolgus monkey (Macaca fascicularis). The following applies: for body weight compared to baseline values (value prior start of treatment) / food intake: obese cynomolgus monkeys; for body weight (in words): SAR16 1 mg/kg, SAR18 low- and high-dose; for food intake: especially lunch (apple), lesser impact on dinner (HFD); for plasma triglyceride (TG) values: over the whole study period. The protocol: Both were tested as single administration in the most relevant animal model that reflects the intended human population. Monkeys are a desirable species to examine the potential effects of drug candidates because of the similarity of their absorption, distribution, metabolism, and excretion profile compared to that of humans. The cynomolgus monkey is selected as the test species of choice over other lower mammalian species for more meaningful and translatable results because it is closely related to humans, both phylogenetically and physiologically. Thus, the pharmacokinetic and pharmacodynamics of varying doses of the compounds were explored in the high-fat diet-induced obese and insulin resistance cynomolgus monkey model.
Cynomolgus monkey (Macaca fascicularis) was selected as the test species of choice for more meaningful results that were translatable to humans. More than 50 male monkeys were trained to identify 40 HFD induced obese monkeys for the study.
They all fulfilled the following metabolic criteria: • weight at least 8 kg, age at least 8 years, fasting insulin >55 μU/mL (in comparison lean monkeys of same age range: weight 5 to 8 kg, fasting glucose ˜70 mg/dL, and fasting insulin ˜[…]), HbA1c >4%, triglycerides >1.3 mmol/L, LDL >5 mmol/L.
The monkeys were individually housed in species- and size appropriate metabolic stainless-steel caging with ad libitum access to water and under controlled environmental conditions with room temperature of 18° C. to 29° C., relative humidity of 30% to 70%, and a minimum of 10 air changes per hour. A time-controlled lighting system provided a regular 12-hour light/12-hour dark diurnal cycle. Cages were cleaned at regular intervals. The monkeys had three meals per day with a daily energy intake of ˜680 kcal (˜2.85 MJ). All food was withdrawn at 5:00 PM so that monkeys were fasted overnight. Monkeys were provided with enrichment toys or devices at all times. […] Each batch of monkey chow was delivered with an accompanying certificate of analysis detailing nutritional composition and levels of specified contaminants (e.g., heavy metals, aflatoxin, and insecticides). Ad libitum access to water through the main system was suspended on days in which water intake was quantified.
There was a run-in period during which monkeys were injected subcutaneously with vehicle once weekly. Food intake (calculated as TEI) and water intake were measured daily along with once-weekly body weight evaluation and one-time baseline value determination for metabolic biomarkers, safety biomarkers, IV glucose tolerance test (IVGTT), and profile for glucose, insulin, and plasma lipids.
For the dosing period 40 trained monkeys (n=10 per group) were selected and stratified for their body weight, fat composition and triglycerides in a four-arm design. All treatments, including a vehicle treated control group were administered subcutaneously on days +1, +19 and +37 and monitored closely for 8 weeks followed by a 4-week observation wash-out period. The dosing period was designed as a four-arm study, and monkeys were treated with either vehicle, SAR16, or SAR18.
The SAR16-treated monkeys were dosed at 1 mg/kg on day +1, day +19, and day +37. The SAR18-treated monkeys were dosed in the low-dose arm at 1 mg/kg on day +1, day +19, and day +37. SAR18 was further dosed in the high-dose arm at 3 mg/kg on day +1, day +19, and day +37.
Other parameters were also measured during the study, including food intake, body fat, plasma ketone bodies, as well as, on blood glucose control (glucose profile, fed, fasting plasma glucose and during ivGTT). One group received the vehicle. The compounds were administered subcutaneously (SC) (12 weeks “evaluation phase” plus run-out) to obese male cynomolgus macaques (Macaca fascicularis).
The SAR16-treated monkeys were dosed 3 times on day +1, day +19, and day +37 at 1 mg/kg. […]

A short description of data set [3]: Plasma concentrations and PK during three subcutaneous administrations in obese cynomolgus monkeys. The following applies: subcutaneous doses of 1 mg/kg, male obese Cynomolgus monkeys. The format is in vivo, Cynomolgus monkey (Macaca fascicularis). The procedure: Specifically, plasma concentrations and pharmacokinetic parameters were analyzed during a treatment of three subsequent subcutaneous administrations of 1 and 3 mg/kg in solution to male obese Cynomolgus monkeys. The exposure to both tested antibodies after subcutaneous doses of 1 mg/kg […] were similar. Moreover, plasma concentrations of both compounds were detected up to the end of sampling (i.e. 336 and 504 hours after the 2nd and the 3rd dose, respectively).

Data set [4] addresses T1, FGFR1c and co-receptor beta-Klotho (KLB) (Homo sapiens, UniProt P11362+Q86Z14).
T1 construct: host or cells: iLite FGF21 Assay Ready Cells (HEK293)
The data set is described as follows: Luciferase reporter gene assay (iLite FGF21 Assay Ready Cells), FGF21-like signaling. In kind it is cell-based. (Reporter assays use an easily measured gene product as a stand-in for the process of interest.)

The nature of data set [5]: In vivo PK in cynomolgus monkeys, single intravenous dose. Also noted: species or system Cynomolgus monkey (Macaca fascicularis). The settings on record: Macaca fascicularis, plasma. The procedure:
Naive cynomolgus monkeys received a single intravenous dose of mAb according to the following table:
In all investigations, the animals were evaluated twice daily for post-dose mortality/moribundity and cage side clinical observations were carried out after each study blood collection time. Studies were Non-GLP, nevertheless, these studies have been conducted in a GLP compliant facility using practices detailed in Standard Operating Procedures consistent with the principles of GLP (Test facility: Sanofi and Charles River Laboratories). Plasma concentrations and pharmacokinetic parameters of the tested antibodies were investigated after single intravenous administration.

In general, t½ refers to how long it takes for the measured level to halve.

T1 sequence (Q86Z14 53-1044 limits assumed): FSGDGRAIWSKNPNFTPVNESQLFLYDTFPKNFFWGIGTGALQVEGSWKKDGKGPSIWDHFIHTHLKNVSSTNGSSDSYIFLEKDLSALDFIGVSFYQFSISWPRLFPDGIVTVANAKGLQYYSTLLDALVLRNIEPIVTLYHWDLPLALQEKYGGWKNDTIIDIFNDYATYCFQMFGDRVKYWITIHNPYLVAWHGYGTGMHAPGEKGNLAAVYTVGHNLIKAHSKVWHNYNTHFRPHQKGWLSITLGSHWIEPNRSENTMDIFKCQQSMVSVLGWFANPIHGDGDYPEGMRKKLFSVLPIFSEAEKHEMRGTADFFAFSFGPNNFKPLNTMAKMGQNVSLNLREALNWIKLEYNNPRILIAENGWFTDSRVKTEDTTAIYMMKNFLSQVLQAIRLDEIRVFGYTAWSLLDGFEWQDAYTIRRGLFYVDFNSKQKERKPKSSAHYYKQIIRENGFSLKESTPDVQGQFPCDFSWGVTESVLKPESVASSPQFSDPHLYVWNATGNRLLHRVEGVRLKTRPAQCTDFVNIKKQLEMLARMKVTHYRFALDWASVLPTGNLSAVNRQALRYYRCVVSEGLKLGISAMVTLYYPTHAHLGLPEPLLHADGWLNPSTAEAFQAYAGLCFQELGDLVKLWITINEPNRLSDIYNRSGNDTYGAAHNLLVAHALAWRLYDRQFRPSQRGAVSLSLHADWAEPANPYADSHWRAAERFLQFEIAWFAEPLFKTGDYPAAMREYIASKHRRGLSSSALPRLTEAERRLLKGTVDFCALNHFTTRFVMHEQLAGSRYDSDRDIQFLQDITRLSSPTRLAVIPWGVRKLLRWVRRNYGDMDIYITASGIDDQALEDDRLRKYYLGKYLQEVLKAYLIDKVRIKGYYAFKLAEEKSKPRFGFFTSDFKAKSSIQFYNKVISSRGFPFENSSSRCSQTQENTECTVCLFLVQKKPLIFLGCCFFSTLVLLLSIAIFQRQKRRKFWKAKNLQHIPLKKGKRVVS
T1 sequence (P11362 22-820 isoform P11362-2 limits assumed): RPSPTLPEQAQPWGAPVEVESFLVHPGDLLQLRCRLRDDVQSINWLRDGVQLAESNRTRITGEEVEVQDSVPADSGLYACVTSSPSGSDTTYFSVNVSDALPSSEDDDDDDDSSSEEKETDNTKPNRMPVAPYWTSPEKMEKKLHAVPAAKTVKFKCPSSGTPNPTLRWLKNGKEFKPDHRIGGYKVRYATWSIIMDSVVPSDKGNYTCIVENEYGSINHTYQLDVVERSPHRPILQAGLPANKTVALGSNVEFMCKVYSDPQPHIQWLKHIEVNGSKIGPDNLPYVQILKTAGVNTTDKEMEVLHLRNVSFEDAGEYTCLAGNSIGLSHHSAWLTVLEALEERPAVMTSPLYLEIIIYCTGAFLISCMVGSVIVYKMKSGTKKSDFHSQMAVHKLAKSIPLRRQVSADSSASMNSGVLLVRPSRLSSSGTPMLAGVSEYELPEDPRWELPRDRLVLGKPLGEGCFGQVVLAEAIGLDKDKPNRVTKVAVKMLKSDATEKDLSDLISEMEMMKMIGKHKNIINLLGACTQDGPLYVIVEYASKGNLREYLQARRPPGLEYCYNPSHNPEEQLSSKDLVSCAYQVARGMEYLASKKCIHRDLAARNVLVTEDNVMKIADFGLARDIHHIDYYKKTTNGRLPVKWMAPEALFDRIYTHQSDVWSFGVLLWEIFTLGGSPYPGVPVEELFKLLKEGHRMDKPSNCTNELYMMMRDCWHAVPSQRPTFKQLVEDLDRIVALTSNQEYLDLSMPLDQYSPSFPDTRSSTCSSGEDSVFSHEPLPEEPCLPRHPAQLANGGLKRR

In the case of “Ab0335: IgG4 PE; 16H7 VL (N25S, D49S, D50A, D91E, N93E); 16H7 VH (M34V, I83T, D109E); HC SEQ ID NO: 39, LC SEQ ID NO: 46”, the “Homogeneity DLS Hydrodynamic radius” value in data set [1] is on record as 5.2 nm. The “DLS Hydrodynamic radius” value is 5.2 nm in data set [1] (pH 5, 40° C., d 21); 5.3 nm in data set [1] (pH 5, d 0); 5.1 nm in data set [1] (pH 6, 40° C., d 21); 5.2 nm in data set [1] (pH 6, d 0); 6.1 nm in data set [1] (pH 8, 40° C., d 21); 5.3 nm in data set [1] (pH 8, d 0). Besides, the “body weight compared to baseline values (value prior start of treatment)” value is on record as 94.5±1.8% in data set [2] (1 mg/kg SC on day +1, +19, +37) and 89.9±1.7% in data set [2] (3 mg/kg SC (high dose) on day +1, +19, +37). In addition, in data set [2], the “body weight (in words)” value is “Significant reductions in body weight”. The food intake entry in data set [2] is given as “Reduction of food intake”. For the same substance, the “plasma triglyceride (TG) values” in data set [2] is listed as “quite robustly reduced”. Also, the exposure entry in data set [3] is recorded as “similar”. Besides, the “cellular activity in the Luciferase gene reporter assay compared to 16H7” value (from here on “cellular activity … compared to 16H7”) in data set [4] is “comparable cellular activity”. In addition, in data set [5] (3.0 mg/kg single IV), the t½ was 306 h.
For the substance “Ab0351: IgG4 PE; 16H7 VL (N25S, D49E, D50E, D91E, N93E); 16H7 VH (M34V, I83T, D109E); HC SEQ ID NO: 40, LC SEQ ID NO: 47”, the “Homogeneity DLS Hydrodynamic radius” value in data set [1] is recorded as 5.3 nm. Further, the “DLS Hydrodynamic radius” value in data set [1] (pH 5, 40° C., d 21) is 5.6 nm; in data set [1] (pH 5, d 0) it was 5.4 nm; in data set [1] (pH 6, 40° C., d 21), 5.2 nm; in data set [1] (pH 6, d 0), 5.2 nm; in data set [1] (pH 8, 40° C., d 21) it was 8.1 nm; in data set [1] (pH 8, d 0), 5.6 nm. Besides, in data set [4], the “cellular activity … compared to 16H7” value is “comparable cellular activity”.
Take “Ab0331: IgG4 PE; 16H7 VL (N25S, D49S, D50E, D91E, N93E); 16H7 VH (M34V, I83T, D109E); HC SEQ ID NO: 38, LC SEQ ID NO: 45”: the “Homogeneity DLS Hydrodynamic radius” value in data set [1] was determined as 5.3 nm. For the same substance, the “DLS Hydrodynamic radius” value is listed as 5.3 nm in data set [1] (pH 5, 40° C., d 21); 5.5 nm in data set [1] (pH 5, d 0); 5.2 nm in data set [1] (pH 6, 40° C., d 21); 5 nm in data set [1] (pH 6, d 0); 5.9 nm in data set [1] (pH 8, 40° C., d 21); 5.6 nm in data set [1] (pH 8, d 0). In addition, the “cellular activity … compared to 16H7” value in data set [4] is given as “comparable cellular activity”. The substance further gave a t½ in data set [5] (3.0 mg/kg single IV) of 259 h.
Take “Ab0430: IgG1 NNAS; 16H7 VL (N25S, D49E, D50E, D91E, N93E); 16H7 VH (M34V, I83T, D109E); HC SEQ ID NO: 43, LC SEQ ID NO: 50”: the “Homogeneity DLS Hydrodynamic radius” value in data set [1] was 5.4 nm. In addition, the “DLS Hydrodynamic radius” value in data set [1] (pH 5, 40° C., d 21) turned out to be 5.4 nm; in data set [1] (pH 5, d 0) it was 5.4 nm; in data set [1] (pH 6, 40° C., d 21) it was 5.4 nm; in data set [1] (pH 6, d 0), 5.4 nm; in data set [1] (pH 8, 40° C., d 21), 6.3 nm; in data set [1] (pH 8, d 0), 5.4 nm.
As for “Ab0429: IgG1 NNAS; 16H7 VL (N25S, D49S, D50A, D91E, N93E); 16H7 VH (M34V, I83T, D109E); HC SEQ ID NO: 42, LC SEQ ID NO: 49”, in data set [1], the “Homogeneity DLS Hydrodynamic radius” value is reported as 5.3 nm. The “DLS Hydrodynamic radius” value in data set [1] (pH 5, 40° C., d 21) was found to be 5.4 nm; in data set [1] (pH 5, d 0) it was 5.4 nm; in data set [1] (pH 6, 40° C., d 21), 5.5 nm; in data set [1] (pH 6, d 0), 5.4 nm; in data set [1] (pH 8, 40° C., d 21), 6.3 nm; in data set [1] (pH 8, d 0) it was 5.3 nm. The substance also came in with a t½ in data set [5] (3.0 mg/kg single IV) of 183 h.
Regarding “16H7: anti FGFR1c/KLB monoclonal antibody of WO 2011/071783, IgG2 backbone; HC SEQ ID NO: 1, LC SEQ ID NO: 2 [Ab 16H7]”, the “body weight compared to baseline values (value prior start of treatment)” value in data set [2] (1 mg/kg SC on day +1, +19, +37) is recorded as 86.5±1.6%. Further, in data set [2], the “body weight (in words)” value was “Significant reductions in body weight”, the food intake result was “Reduction of food intake” and the “plasma triglyceride (TG) values” is “quite robustly reduced”. The exposure entry in data set [3] is listed as “similar”. Further, the “FGF21-like activity in Luciferase gene reporter assay (in words)” value in data set [4] (monovalent Fab versus bivalent antibody) is recorded as “shows FGF21-like activity”. Moreover, in data set [5] (0.1 mg/kg single IV), the t½ stood at 145 h. Also, the t½ in data set [5] (0.3 mg/kg single IV) is reported as 151 h. In addition, the t½ in data set [5] (1.0 mg/kg single IV) is 269 h.
Consider “Ab0428: IgG1 NNAS; 16H7 VL (N25S, D49S, D50E, D91E, N93E); 16H7 VH (M34V, I83T, D109E); HC SEQ ID NO: 41, LC SEQ ID NO: 48”, for which the “Homogeneity DLS Hydrodynamic radius” value in data set [1] is 5.4 nm. Further, the “DLS Hydrodynamic radius” value was found to be 5.5 nm in data set [1] (pH 5, 40° C., d 21); 5.4 nm in data set [1] (pH 5, d 0); 5.3 nm in data set [1] (pH 6, 40° C., d 21); 5.4 nm in data set [1] (pH 6, d 0); 6.1 nm in data set [1] (pH 8, 40° C., d 21); 5.4 nm in data set [1] (pH 8, d 0).
